From patent US20240100174A1, “PROTEIN-PEG INTERACTIONS THAT REDIRECT THE THERMAL UNFOLDING PATHWAY OF PEGYLATED HUMAN GALECTIN-3C” (UNIVERSITY OF FLORIDA RESEARCH FOUNDATION, INCORPORATED, priority 2022, published 2024)

How the values were obtained:
[1] = Equilibrium binding of LacNac, intrinsic tryptophan fluorescence; conditions: ligand LacNac; average ± standard deviation of 3 replicated experiments; PBS; read-out: Kd (equilibrium binding constant)
Experimental: (§1) Equilibrium binding data were recorded using a protocol adapted from a previous procedure from Restuccia, et al (38). Intrinsic tryptophan fluorescence was monitored using a Cary Eclipse™ Fluorescence Spectrophotometer (Agilent) operating with Cary Eclipse™ WinFLR software version 1.2 in ‘Scan Mode’. The instrument method parameters were as follows: excitation wavelength was 280 nm, the acquisition range was from 290 nm to 440 nm and the photomultiplier tube sensitivity was set to ‘medium’. Samples were prepared at final concentrations of 1 μM for Gal3C[T243C] or 5 μM Gal3C[T243C]-PEG in 800 ∥L, in PBS for each titration. Samples were pipetted into 0.7×0.7 cm quartz cuvettes with a micro stir bar. Each new experiment was first zeroed against PBS to remove the small background signal from the buffer. […]
The binding affinity and specificity of Gal3C[T243C]-PEG was compared with Gal3C[T243C] and Gal3C (see FIG. 1C, FIG. 9 and FIG. 10) via an inherent tryptophan fluorescence assay optimized to ensure equilibrium binding conditions. Binding of lactose or LacNac quenches the fluorescence of W181, located adjacent to the bound sugar in the crystal structure of Gal3C, thus permitting direct measurement of ligand Kd values. […]

[2] = Equilibrium binding of lactose, intrinsic tryptophan fluorescence; conditions: ligand lactose; average ± standard deviation of 3 replicated experiments; PBS; read-out: Kd (equilibrium binding constant)
Experimental: as §1
The binding affinity and specificity of Gal3C[T243C]-PEG was compared with Gal3C[T243C] and Gal3C (see FIG. 1C, FIG. 9 and FIG. 10) via an inherent tryptophan fluorescence assay optimized to ensure equilibrium binding conditions. Binding of lactose or LacNac quenches the fluorescence of W181, located adjacent to the bound sugar in the crystal structure of Gal3C, thus permitting direct measurement of ligand Kd values.

B1: Gal3C[T243C]: Gal3C variant with a single extrinsic cysteine at position 243; SEQ ID NO: 11 (protein)
chain: MAGPLIVPYNLPLPGGVVPRMLITILGTVKPNANRIALDFQRGNDVAFHFNPRFNENNRRVIVCNTKLDNNWGREERQSVFPFESGKPFKIQVLVEPDHFKVAVNDAHLLQYNHRVKKLNEISKLGISGDIDLTSASYCMILEHHHHHH
- Kd [1]: 230 ± 56.5 µM
- Kd [2]: 413 ± 102 µM
